Data reported in patent US20050059089A1 (priority 2003, published 2005).
Where “and” joins values, the source holds several entries; their conditions need not be identical. Identical values can stand only once. No end group written: not given here.

B1: human recombinant INSL5 (ligand)
chain 1: KESVRLCGLEYIRTVIYICASSRW
chain 2: QDLQTLCCTDGCSMTDLSALC
modifications: ends and bridges not checked; cysteine pairing not given here
notes: Recombinant peptide from COS-7 cells co-transfected with furin; also called unlabeled INSL5; human INSL5
B2: human relaxin3 (ligand)
chain 1: RAAPYGVRLCGREFIRAVIFTCGGSRW
chain 2: DVLAGLSSSCCKWGCSKSEISSLC
modifications: disulfide (positions not given here); also: A- and B-chains linked by disulfide bridges, places not given here
notes: also called unlabeled relaxin3; human recombinant relaxin3

Key:
human GPCR135 = molecular target: T1, human GPCR135 (human, UniProt Q9NSD7 1-469); test: competition binding with 100 pM ^125I-relaxin3, membranes of COS-7 cells expressing human GPCR135
T1 construct: Expressed in COS-7, CHO, SK-N-MC or HEK293 cells
T1 sequence: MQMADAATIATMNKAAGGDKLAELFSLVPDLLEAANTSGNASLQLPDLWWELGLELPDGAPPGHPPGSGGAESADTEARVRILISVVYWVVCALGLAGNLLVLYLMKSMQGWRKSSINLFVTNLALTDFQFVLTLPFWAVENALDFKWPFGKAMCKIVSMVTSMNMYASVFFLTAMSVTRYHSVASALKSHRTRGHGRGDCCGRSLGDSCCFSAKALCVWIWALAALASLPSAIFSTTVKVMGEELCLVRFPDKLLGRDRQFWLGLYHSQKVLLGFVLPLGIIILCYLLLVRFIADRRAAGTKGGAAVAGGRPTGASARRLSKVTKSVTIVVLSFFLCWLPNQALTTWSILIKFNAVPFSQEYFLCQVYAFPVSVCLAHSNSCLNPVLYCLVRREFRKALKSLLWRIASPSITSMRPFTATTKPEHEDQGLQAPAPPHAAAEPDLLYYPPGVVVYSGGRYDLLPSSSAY
Method: The binding assays were performed at room temperature for an incubation time of one hour. The binding mixtures were then filtered through GFC filters pre-saturated with 0.3 polyethylenimine (Sigma) and washed with cold binding buffer. […] The results were analyzed by Prism 3.0 software.

[1] = molecular target: Monkey, bovine, and porcine GPCR142; test: cell-based or functional assay
mouse GPCR142 [2] = molecular target: T2, mouse GPCR142 (mouse, UniProt Q7TQP4 1-414); test: cell-based or functional assay
T2 sequence: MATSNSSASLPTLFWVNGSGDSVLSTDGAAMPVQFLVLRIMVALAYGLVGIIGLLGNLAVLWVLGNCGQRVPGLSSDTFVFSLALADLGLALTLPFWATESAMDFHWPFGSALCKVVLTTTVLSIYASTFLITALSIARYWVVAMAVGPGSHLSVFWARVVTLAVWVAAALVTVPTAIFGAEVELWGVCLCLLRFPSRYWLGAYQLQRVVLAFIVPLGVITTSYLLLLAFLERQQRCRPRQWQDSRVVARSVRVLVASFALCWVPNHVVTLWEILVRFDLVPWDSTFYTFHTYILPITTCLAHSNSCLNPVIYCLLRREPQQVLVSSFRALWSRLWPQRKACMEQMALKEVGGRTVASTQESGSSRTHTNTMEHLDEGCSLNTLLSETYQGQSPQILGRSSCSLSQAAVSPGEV

porcine GPCR142 [3] = molecular target: T3, porcine GPCR142 (porcine); test: cell-based or functional assay
T3 chain: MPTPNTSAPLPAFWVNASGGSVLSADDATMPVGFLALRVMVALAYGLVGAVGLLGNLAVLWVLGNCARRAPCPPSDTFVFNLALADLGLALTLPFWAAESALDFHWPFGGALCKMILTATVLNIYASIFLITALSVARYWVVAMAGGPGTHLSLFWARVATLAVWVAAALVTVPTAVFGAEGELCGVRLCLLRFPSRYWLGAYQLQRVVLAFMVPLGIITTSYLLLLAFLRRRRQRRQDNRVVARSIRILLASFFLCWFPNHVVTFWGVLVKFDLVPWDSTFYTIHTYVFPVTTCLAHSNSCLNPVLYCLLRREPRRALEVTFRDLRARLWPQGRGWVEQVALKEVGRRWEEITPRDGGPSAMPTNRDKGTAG

human GPCR142 [4] = molecular target: T4, human GPCR142 (human, UniProt Q8TDU9 1-374); test: cell-based or functional assay
T4 sequence (Q8TDU9 whole entry L329S): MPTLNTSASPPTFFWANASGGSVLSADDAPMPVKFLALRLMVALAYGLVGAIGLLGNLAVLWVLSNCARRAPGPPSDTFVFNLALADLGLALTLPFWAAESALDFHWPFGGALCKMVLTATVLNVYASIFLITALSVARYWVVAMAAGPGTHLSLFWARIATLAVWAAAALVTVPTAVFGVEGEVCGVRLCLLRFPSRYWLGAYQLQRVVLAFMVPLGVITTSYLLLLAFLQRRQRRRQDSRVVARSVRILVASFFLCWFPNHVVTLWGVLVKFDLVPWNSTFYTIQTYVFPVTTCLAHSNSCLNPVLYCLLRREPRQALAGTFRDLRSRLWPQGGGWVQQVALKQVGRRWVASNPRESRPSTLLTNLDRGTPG

monkey GPCR142 [5] = molecular target: T5, monkey GPCR142 (monkey (Macaca Nemestrina), UniProt Q8TDU9 1-374 (human entry)); test: cell-based or functional assay
T5 chain: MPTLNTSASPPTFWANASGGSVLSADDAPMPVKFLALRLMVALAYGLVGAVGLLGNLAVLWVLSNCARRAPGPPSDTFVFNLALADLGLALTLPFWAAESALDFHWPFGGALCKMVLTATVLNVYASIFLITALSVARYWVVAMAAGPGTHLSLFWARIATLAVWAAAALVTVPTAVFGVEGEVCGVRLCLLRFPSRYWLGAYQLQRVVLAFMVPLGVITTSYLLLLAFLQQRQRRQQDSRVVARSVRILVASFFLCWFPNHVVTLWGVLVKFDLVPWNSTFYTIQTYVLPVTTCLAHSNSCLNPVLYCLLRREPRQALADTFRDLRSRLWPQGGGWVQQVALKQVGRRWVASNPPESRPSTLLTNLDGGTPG

bovine GPCR142 [6] = molecular target: T6, bovine GPCR142 (bovine); test: cell-based or functional assay
T6 chain: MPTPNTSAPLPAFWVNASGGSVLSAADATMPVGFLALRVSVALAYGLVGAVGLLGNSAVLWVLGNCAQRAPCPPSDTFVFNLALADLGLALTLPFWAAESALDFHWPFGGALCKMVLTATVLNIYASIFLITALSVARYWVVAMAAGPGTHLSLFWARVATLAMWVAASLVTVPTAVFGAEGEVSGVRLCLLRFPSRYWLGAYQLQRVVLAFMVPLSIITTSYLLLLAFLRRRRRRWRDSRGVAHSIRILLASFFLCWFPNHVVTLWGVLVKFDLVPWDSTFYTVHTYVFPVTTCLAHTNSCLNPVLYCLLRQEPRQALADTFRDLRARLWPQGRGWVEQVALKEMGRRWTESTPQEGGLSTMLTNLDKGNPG

human GPCR142 [7] = molecular target: T4, human GPCR142; test: radioligand binding assays
human GPCR142 [8] = molecular target: T4, human GPCR142; test: competition binding with ^125I-relaxin3, membranes of COS-7 cells transiently expressing GPCR142
Method: (§1) The binding mixtures were incubated at room temperature for 1 h and then were filtered through 96-well GFC plates (Packard) and washed with ice-cold washing buffer: 50 mM Tris-HCl, pH 7.4. Fifty microliters of Microscint-40 were added to each well and the plates were counted in a Topcounter NTX (Packard).

mouse GPCR142 [9] = molecular target: T2, mouse GPCR142; test: radioligand competition binding, recombinant receptor in transfected COS-7 cells
Method: (§2) Competition binding experiments were performed to compare the ligand binding properties for recombinant monkey, mouse, bovine, and porcine GPCR142 versus that of the human GPCR142. […] The GPCR142 receptors from different species were also compared in GTPγS binding and Ca²⁺ mobilization assays.
as §1

porcine GPCR142 [10] = molecular target: T3, porcine GPCR142; test: as above
Method: as §2, §1

human GPCR142 [11] = molecular target: T4, human GPCR142; test: as above
Method: as §2, §1

monkey GPCR142 [12] = molecular target: T5, monkey GPCR142; test: as above
Method: as §2, §1

bovine GPCR142 [13] = molecular target: T6, bovine GPCR142; test: as above
Method: as §2, §1

Binder | binding result (human GPCR135) | EC50, Ca^2+ mobilization with Gα16 [1] | EC50, GTPγS binding assay (mouse GPCR142 [2]) | EC50, GTPγS binding assay (porcine GPCR142 [3]) | EC50, Ca^2+ mobilization with Gα16 (human GPCR142 [4]) | EC50, GTPγS binding assay (human GPCR142 [4]) | EC50, inhibition of forskolin-stimulated β-gal activity (cAMP reporter) (human GPCR142 [4]) | EC50, GTPγS binding assay (monkey GPCR142 [5]) | EC50, GTPγS binding assay (bovine GPCR142 [6]) | Kd and Ki values (human GPCR142 [7]) | Ki (human GPCR142 [8]) | IC50 (mouse GPCR142 [9]) | IC50 (porcine GPCR142 [10]) | IC50 (human GPCR142 [11]) | IC50 (monkey GPCR142 [12]) | IC50 (bovine GPCR142 [13])
B1 | no binding | – | – | – | – | – | – | – | – | – | – | – | – | – | – | –
B2 | – | 50 to 100 nM | 3.5 nM | 0.96 nM | ~50 nM | 0.93 nM and 0.98 nM | 0.85 nM | 1.1 nM | 0.45 nM | 1 to 2 nM | 1.2 nM | 5.45 nM | 1.59 nM | 1.45 nM | 1.34 nM | 0.87 nM
